Assay results published in article PMC9407945 (Science immunology, 2022).

B1: humanized SW186 H1L1 (antibody, V domains shown)
VH: QVQLVQSGAEVKKPGSSVKVSCKASGVAFSSYWMNWVRQAPGQGLEWMGQIYPGDGDTNYNGKFKGRVTITADKSTSTAYMELSSLRSEDTAVYYCARGFIATVEETMDYWGQGTLVTVSS
VL: DIQMTQSPSSLSASVGDRVTITCRASQDISNYLNWYQQKPGKAPKLLIYYTSRLHSGVPSRFSGSGSGTDFTLTISSLQPEDFATYYCQQSHTLPWTFGGGTKLEIK
B2: humanized SW186 H3L3 (antibody, V domains shown)
VH: QVQLVQSGAEVKKPGSSVKVSCKASGVAFSSYWMNWVRQAPGQGLEWIGQIYPGDGDTNYNGKFKGRATITADKSTSTAYMELSSLRSEDTAVYFCARGFIATVEETMDYWGQGTLVTVSS
VL: DIQMTQSPSSLSASVGDRVTITCRASQDISNYLNWYQQKPGKAPKLLIYYTSRLHSGVPSRFSGSGSGTDYTLTISSLQPEDFATYFCQQSHTLPWTFGGGTKLEIK
B3: humanized SW186 H3L2 (antibody, V domains shown)
VH: QVQLVQSGAEVKKPGSSVKVSCKASGVAFSSYWMNWVRQAPGQGLEWIGQIYPGDGDTNYNGKFKGRATITADKSTSTAYMELSSLRSEDTAVYFCARGFIATVEETMDYWGQGTLVTVSS
VL: DIQMTQSPSSLSASVGDRVTITCRASQDISNYLNWYQQKPGKAPKLLIYYTSRLHSGVPSRFSGSGSGTDFTLTISSLQPEDFATYFCQQSHTLPWTFGGGTKLEIK
B4: humanized SW186 H3L4 (antibody, V domains shown)
VH: QVQLVQSGAEVKKPGSSVKVSCKASGVAFSSYWMNWVRQAPGQGLEWIGQIYPGDGDTNYNGKFKGRATITADKSTSTAYMELSSLRSEDTAVYFCARGFIATVEETMDYWGQGTLVTVSS
VL: DIQMTQSPSSLSASVGDRVTITCRASQDISNYLNWYQQKPGKTVKLLIYYTSRLHSGVPSRFSGSGSGTDYTLTISSLQPEDFATYFCQQSHTLPWTFGGGTKLEIK
B5: SW186 (murine variable regions, murine-human chimeric) (Fab, V domains shown)
VH: QVQLQQSGAELVKPGASVKISCKASGVAFSSYWMNWVKQRPGKGLEWIGQIYPGDGDTNYNGKFKGKATLTADKSSSTAYMQLSSLSSEDSAVYFCARGFIATVEETMDYWGQGTSVTVSS
VL: DIQMTQTTSSLSASLGDRVTISCRASQDISNYLNWYQQKPDGTVKLLIYYTSRLHSGVPSRFSGSGSGTDYSLTISNLEQEDIATYFCQQSHTLPWTFGGGTKLEIK
B6: humanized SW186 H2L3 (antibody, V domains shown)
VH: QVQLVQSGAEVKKPGSSVKVSCKASGVAFSSYWMNWVRQAPGQGLEWIGQIYPGDGDTNYNGKFKGRVTITADKSTSTAYMELSSLRSEDTAVYFCARGFIATVEETMDYWGQGTLVTVSS
VL: DIQMTQSPSSLSASVGDRVTITCRASQDISNYLNWYQQKPGKAPKLLIYYTSRLHSGVPSRFSGSGSGTDYTLTISSLQPEDFATYFCQQSHTLPWTFGGGTKLEIK
B7: humanized SW186 H1L4 (antibody, V domains shown)
VH: QVQLVQSGAEVKKPGSSVKVSCKASGVAFSSYWMNWVRQAPGQGLEWMGQIYPGDGDTNYNGKFKGRVTITADKSTSTAYMELSSLRSEDTAVYYCARGFIATVEETMDYWGQGTLVTVSS
VL: DIQMTQSPSSLSASVGDRVTITCRASQDISNYLNWYQQKPGKTVKLLIYYTSRLHSGVPSRFSGSGSGTDYTLTISSLQPEDFATYFCQQSHTLPWTFGGGTKLEIK
B8: humanized SW186 H3L3 (antibody, V domains shown)
VH: QVQLVQSGAEVKKPGSSVKVSCKASGVAFSSYWMNWVRQAPGQGLEWIGQIYPGDGDTNYNGKFKGRATITADKSTSTAYMELSSLRSEDTAVYFCARGFIATVEETMDYWGQGTLVTVSS
VL: DIQMTQSPSSLSASVGDRVTITCRASQDISNYLNWYQQKPGKAPKLLIYYTSRLHSGVPSRFSGSGSGTDYTLTISSLQPEDFATYFCQQSHTLPWTFGGGTKLEIK
B9: humanized SW186 H4L3 (antibody, V domains shown)
VH: QVQLVQSGAEVKKPGSSVKVSCKASGVAFSSYWMNWVKQAPGQGLEWIGQIYPGDGDTNYNGKFKGKATITADKSTSTAYMELSSLRSEDTAVYFCARGFIATVEETMDYWGQGTLVTVSS
VL: DIQMTQSPSSLSASVGDRVTITCRASQDISNYLNWYQQKPGKAPKLLIYYTSRLHSGVPSRFSGSGSGTDYTLTISSLQPEDFATYFCQQSHTLPWTFGGGTKLEIK
B10: humanized SW186 H4L4 (antibody, V domains shown)
VH: QVQLVQSGAEVKKPGSSVKVSCKASGVAFSSYWMNWVKQAPGQGLEWIGQIYPGDGDTNYNGKFKGKATITADKSTSTAYMELSSLRSEDTAVYFCARGFIATVEETMDYWGQGTLVTVSS
VL: DIQMTQSPSSLSASVGDRVTITCRASQDISNYLNWYQQKPGKTVKLLIYYTSRLHSGVPSRFSGSGSGTDYTLTISSLQPEDFATYFCQQSHTLPWTFGGGTKLEIK
B11: humanized SW186 H2L1 (antibody, V domains shown)
VH: QVQLVQSGAEVKKPGSSVKVSCKASGVAFSSYWMNWVRQAPGQGLEWIGQIYPGDGDTNYNGKFKGRVTITADKSTSTAYMELSSLRSEDTAVYFCARGFIATVEETMDYWGQGTLVTVSS
VL: DIQMTQSPSSLSASVGDRVTITCRASQDISNYLNWYQQKPGKAPKLLIYYTSRLHSGVPSRFSGSGSGTDFTLTISSLQPEDFATYYCQQSHTLPWTFGGGTKLEIK
B12: humanized SW186 H3L2 (antibody, V domains shown)
VH: QVQLVQSGAEVKKPGSSVKVSCKASGVAFSSYWMNWVRQAPGQGLEWIGQIYPGDGDTNYNGKFKGRATITADKSTSTAYMELSSLRSEDTAVYFCARGFIATVEETMDYWGQGTLVTVSS
VL: DIQMTQSPSSLSASVGDRVTITCRASQDISNYLNWYQQKPGKAPKLLIYYTSRLHSGVPSRFSGSGSGTDFTLTISSLQPEDFATYFCQQSHTLPWTFGGGTKLEIK
B13: humanized SW186 H2L2 (antibody, V domains shown)
VH: QVQLVQSGAEVKKPGSSVKVSCKASGVAFSSYWMNWVRQAPGQGLEWIGQIYPGDGDTNYNGKFKGRVTITADKSTSTAYMELSSLRSEDTAVYFCARGFIATVEETMDYWGQGTLVTVSS
VL: DIQMTQSPSSLSASVGDRVTITCRASQDISNYLNWYQQKPGKAPKLLIYYTSRLHSGVPSRFSGSGSGTDFTLTISSLQPEDFATYFCQQSHTLPWTFGGGTKLEIK
B14: humanized SW186 H4L1 (antibody, V domains shown)
VH: QVQLVQSGAEVKKPGSSVKVSCKASGVAFSSYWMNWVKQAPGQGLEWIGQIYPGDGDTNYNGKFKGKATITADKSTSTAYMELSSLRSEDTAVYFCARGFIATVEETMDYWGQGTLVTVSS
VL: DIQMTQSPSSLSASVGDRVTITCRASQDISNYLNWYQQKPGKAPKLLIYYTSRLHSGVPSRFSGSGSGTDFTLTISSLQPEDFATYYCQQSHTLPWTFGGGTKLEIK
B15: humanized SW186 H2L4 (antibody, V domains shown)
VH: QVQLVQSGAEVKKPGSSVKVSCKASGVAFSSYWMNWVRQAPGQGLEWIGQIYPGDGDTNYNGKFKGRVTITADKSTSTAYMELSSLRSEDTAVYFCARGFIATVEETMDYWGQGTLVTVSS
VL: DIQMTQSPSSLSASVGDRVTITCRASQDISNYLNWYQQKPGKTVKLLIYYTSRLHSGVPSRFSGSGSGTDYTLTISSLQPEDFATYFCQQSHTLPWTFGGGTKLEIK
B16: humanized SW186 H3L1 (antibody, V domains shown)
VH: QVQLVQSGAEVKKPGSSVKVSCKASGVAFSSYWMNWVRQAPGQGLEWIGQIYPGDGDTNYNGKFKGRATITADKSTSTAYMELSSLRSEDTAVYFCARGFIATVEETMDYWGQGTLVTVSS
VL: DIQMTQSPSSLSASVGDRVTITCRASQDISNYLNWYQQKPGKAPKLLIYYTSRLHSGVPSRFSGSGSGTDFTLTISSLQPEDFATYYCQQSHTLPWTFGGGTKLEIK
B17: humanized SW186 H1L3 (antibody, V domains shown)
VH: QVQLVQSGAEVKKPGSSVKVSCKASGVAFSSYWMNWVRQAPGQGLEWMGQIYPGDGDTNYNGKFKGRVTITADKSTSTAYMELSSLRSEDTAVYYCARGFIATVEETMDYWGQGTLVTVSS
VL: DIQMTQSPSSLSASVGDRVTITCRASQDISNYLNWYQQKPGKAPKLLIYYTSRLHSGVPSRFSGSGSGTDYTLTISSLQPEDFATYFCQQSHTLPWTFGGGTKLEIK
B18: humanized SW186 H3L4 (antibody, V domains shown)
VH: QVQLVQSGAEVKKPGSSVKVSCKASGVAFSSYWMNWVRQAPGQGLEWIGQIYPGDGDTNYNGKFKGRATITADKSTSTAYMELSSLRSEDTAVYFCARGFIATVEETMDYWGQGTLVTVSS
VL: DIQMTQSPSSLSASVGDRVTITCRASQDISNYLNWYQQKPGKTVKLLIYYTSRLHSGVPSRFSGSGSGTDYTLTISSLQPEDFATYFCQQSHTLPWTFGGGTKLEIK
B19: humanized SW186 H4L2 (antibody, V domains shown)
VH: QVQLVQSGAEVKKPGSSVKVSCKASGVAFSSYWMNWVKQAPGQGLEWIGQIYPGDGDTNYNGKFKGKATITADKSTSTAYMELSSLRSEDTAVYFCARGFIATVEETMDYWGQGTLVTVSS
VL: DIQMTQSPSSLSASVGDRVTITCRASQDISNYLNWYQQKPGKAPKLLIYYTSRLHSGVPSRFSGSGSGTDFTLTISSLQPEDFATYFCQQSHTLPWTFGGGTKLEIK
B20: humanized SW186 H1L2 (antibody, V domains shown)
VH: QVQLVQSGAEVKKPGSSVKVSCKASGVAFSSYWMNWVRQAPGQGLEWMGQIYPGDGDTNYNGKFKGRVTITADKSTSTAYMELSSLRSEDTAVYYCARGFIATVEETMDYWGQGTLVTVSS
VL: DIQMTQSPSSLSASVGDRVTITCRASQDISNYLNWYQQKPGKAPKLLIYYTSRLHSGVPSRFSGSGSGTDFTLTISSLQPEDFATYFCQQSHTLPWTFGGGTKLEIK

molecular target: SARS-CoV-2 spike ectodomain (S-ecto), Wuhan-hu-1, 2P (SARS-CoV-2, Wuhan-hu-1, UniProt P0DTC2, 2P mutation at residues 986 and 987, biotinylated (EZ-link NHS-sulfo-LC-Biotin) for the BLI assay); experiment: BLI; conditions: both partners purified

| Binder | Kd [nM] |
| --- | --- |
| B1 | 10 |
| B2 | 5.82 |
| B3 | 6.09 |
| B4 | 2.6 |

molecular target: SARS-CoV-2 spike ectodomain (S-ecto), Wuhan-hu-1 strain, 2P (SARS-CoV-2, Wuhan-hu-1, UniProt P0DTC2, 2P mutation at residues 986 and 987 | 2P mutation at residues 986 and 987, biotin (NHS-sulfo-LC-Biotin, EZ-link biotinylation kit)); experiment: BLI; conditions: both partners purified

| Binder | Kd [nM] | koff [s⁻¹] | kon [M⁻¹ s⁻¹] |
| --- | --- | --- | --- |
| B5 | 1.09 | 0.000128 | 117000 |
| B6 | 3.72 | 0.000713 | 191000 |
| B7 | 5.03 | 0.000519 | 103000 |
| B8 | 5.82 | 0.000761 | 131000 |
| B9 | 2.4 | 0.000424 | 177000 |
| B10 | 1.57 | 0.000338 | 216000 |
| B11 | 18.1 | 0.00078 | 43100 |
| B12 | 6.09 | 0.00122 | 201000 |
| B13 | 12.6 | 0.00151 | 120000 |
| B14 | 4.14 | 0.00077 | 186000 |
| B15 | 3.14 | 0.000603 | 192000 |
| B16 | 6.69 | 0.00119 | 178000 |
| B17 | 4.37 | 0.000598 | 137000 |
| B18 | 2.6 | 0.000469 | 181000 |
| B19 | 5.86 | 0.000953 | 163000 |
| B20 | 26.2 | 0.00126 | 48200 |
